{
  "source": "paper PMC11600153",
  "about": "“Mg^2+-Ion Dependence Revealed for a BAHD 13-O-β-Aminoacyltransferase from Taxus Plants” (JACS Au, 2024)",
  "proteins": {"B1": {"name": "PheAT (truncated TycA module of tyrocidine synthase) (Brevibacillus parabrevis) (protein)", "chain": "MLANQANLIDNKRELEQHALVPYAQGKSIHQLFEEQAEAFPDRVAIVFENRRLSYQELNRKANQLARALLEKGVQTDSIVGVMMEKSIENVIAILAVLKAGGAYVPIDIEYPRDRIQYILQDSQTKIVLTQKSVSQLVHDVGYSGEVVVLDEEQLDARETANLHQPSKPTDLAYVIYTSGTTGKPKGTMLEHKGIANLQSFFQNSFGVTEQDRIGLFASMSFDASVWEMFMALLSGASLYILSKQTIHDFAAFEHYLSENELTIITLPPTYLTHLTPERITSLRIMITAGSASSAPLVNKWKDKLRYINAYGPTETSICATIWEAPSNQLSVQSVPIGKPIQNTHIYIVNEDLQLLPTGSEGELCIGGVGLARGYWNRPDLTAEKFVDNPFVPGEKMYRTGDLAKWLTDGTIEFLGRIDHQVKIRGHRIELGEIESVLLAHEHITEAVVIAREDQHAGQYLCAYYISQQEATPAQLRDYAAQKLPAYMLPSYFVKLDKMPLTPNDKIDRKALPEPDLTANQSQAAYHPPRTETESILVSIWQNVLGIEKIGIRDNFYSLGGDSIQAIQVVARLHSYQLKLETKDLLNYPTIEQVALFVKSTTRKSD", "notes": "truncated TycA (PheAT)"}},
  "substrate": "CC(C)=C[C@H](N)[C@@H](O)C(=O)O",
  "experiment": "LC/ESI-MS/MS product quantification, Michaelis-Menten fit",
  "type": "biochemical, Brevibacillus parabrevis",
  "details": "7 varied 0.05-1 mM, CoA 1 mM, ATP 1 mM, MgCl2, phosphate pH 8, 31 °C",
  "data": [
    {"protein": "B1", "values": [
      {"measurement": "Km", "value": 112, "unit": "µM"},
      {"measurement": "kcat", "value": 0.0083, "unit": "s⁻¹"}
    ]}
  ]
}
